Data taken from patent US9168297B2, “Regulation of skin pigmentation by neuregulin-1 (NRG-1)” (The United States of America, as Represented by the …, priority 2010, dated 2015).

Tested on: HEM-DP melanocytes
Test: Melanin content assay (melanin/protein)
Assay type: cell-based, human
Conditions: NRG-1 50 ng/ml
Method: FIGS. 6A and 6B are bar graphs illustrating the effect of NRG-1 on the pigmentation of cultured human melanocytes. FIG. 6A) Lightly-pigmented (HEM-LP) and FIG. 6B) Darkly-pigmented (HEM-DP) melanocytes were treated with or without NRG-1 (50 ng/ml) for 1, 3, 5 or 9 days and proteins were extracted from each sample. After centrifugation at 10,000 g for 15 minutes, precipitates were analyzed for melanin content, and the supernatants were analyzed for protein content. Results are the average of three studies±SD; statistically significant differences are indicated.
FIGS. 9A and 9B are digital images illustrating the effect of pan-ERBB inhibitors on NRG-1 action on human melanocytes and MelanoDerms. FIG. 9A) HEM-DP melanocytes were treated for 9 days with 50 ng/ml NRG-1 in the presence of C39 (0.5 μM) or CI-1033 (2 μM) or vehicle (DMSO) alone. The results are the averages of 3 independent studies±SD. FIG. 9B) Dark MelanoDerms were treated for 9 days with 50 ng/ml NRG-1 in the presence of C39 (0.5 μM) or CI-1033 (2 μM) or vehicle (DMSO) alone. L values shown are the average of 3 spots measured in the center of each Melanoderm.
Melanin contents were determined by dissolving cell pellets overnight at room temperature in 200 μl 1 N NaOH, and melanin concentrations were quantitated by absorbance at 405 nm in a SpectraMax 250 ELISA reader (Molecular Devices) using a standard curve generated from synthetic melanin (Sigma-Aldrich, St. Louis, Mo.). Melanin content is expressed as μg melanin per μg protein. Each study was repeated at least three times.
The effects of NRG-1 on the pigmentation of human melanocytes were also examined. […] However, on day 9, when the cells had reached confluence, the pigmentation level of NRG-1-treated HEM-LP melanocytes was about 35% higher than the control (FIG. 6A).
The EGF domain of NRG-1 can activate the NRG-1 receptors. Two exemplary EGF domains of NRG-1 were aligned (SEQ ID NOs: 9 and 10) and 5 different […] peptides within these two sequences were designed (FIG. 12). Darkly-pigmented human epidermal melanocytes (HEM-DP) were treated with each of the […] peptides (100 nM) or the commercially available rhNRG-1 (6.25 nM) or the vehicle only (0.1% BSA in PBS) every other day for 7 days.
In particular, HEM-DP were treated with each of the 8-mer peptides (WC-6, […], amino acids 3-10 of SEQ ID NO: 10; WC-7, […], amino acids 8-15 of SEQ ID NO: 10; WC-8, […], amino acids 12-19 of SEQ ID NO: 10; WC-9, […], amino acids 16-23 of SEQ ID NO: 10; WC-10, […], amino acids 20-27 of SEQ ID NO: 10; 100 nM) or the full length EGF domain of NRG-1 (WC-11, SEQ ID NO: 10, 100 nM) or the commercially available rhNRG-1 (SEQ ID NO: 11, 6.25 nM) or vehicle only (0.1% BSA in PBS) every day for 9 days.

B1: NRG-1: commercially available recombinant human neuregulin-1 (rhNRG-1-β1, R&D Systems), SEQ ID NO: 11 (protein)
chain: TSHLVKCAEKEKTFCVNGGECFMVKDLSNPSRYLCKCPNEFTGDRCQNYVMASFYKHLGIEFMEAEELYQK
Melanin content, NRG-1 alone (9 days, vehicle DMSO): stimulated melanin content | Pigmentation level (day 9, vs controls): remained higher | Pigmentation level (starting at day 5, subconfluent, vs controls): higher than the controls
